Molecular target: T1, prostate specific antigen (PSA) (human, UniProt P07288 25-261)
Assay: SPR; ka 3.11e3 M-1s-1, kd 11.23e-3 s-1; PBS (10 mM Na2HPO4, 137 mM NaCl, 2 mM KH2PO4, 2.7 mM KCl), pH 7.4; SPR at 25 C, 50 ul/min; PSA 2 ng/ml; DNA/PEG thiol SAM on gold; QCM temperature not stated
Conditions: protein: commercial; hairpin (predicted)

T1 sequence (P07288 25-261): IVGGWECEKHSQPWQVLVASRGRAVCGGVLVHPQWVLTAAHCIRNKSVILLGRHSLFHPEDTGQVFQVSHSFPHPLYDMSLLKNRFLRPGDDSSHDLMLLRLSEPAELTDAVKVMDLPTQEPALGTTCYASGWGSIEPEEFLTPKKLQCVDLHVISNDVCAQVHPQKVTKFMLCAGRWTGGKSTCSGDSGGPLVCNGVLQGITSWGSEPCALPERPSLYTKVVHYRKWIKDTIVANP

Row | Binder | Ka
1 | TTTTTACGCACCGGGTACGTTTTTTGGCCTTT (ssDNA, 5' C6 thiol) [PSAG212] | 0.28 ± 0.03 10^6 M-1

Molecular target: T1, prostate specific antigen (PSA)
Assay: QCM; 2 ng/ml PSA injected; PBS (10 mM Na2HPO4, 137 mM NaCl, 2 mM KH2PO4, 2.7 mM KCl), pH 7.4; SPR at 25 C, 50 ul/min; PSA 2 ng/ml; DNA/PEG thiol SAM on gold; QCM temperature not stated
Conditions: protein: commercial; hairpin (predicted)

Row | Binder | binding signal
2 | TTTTTCCGCACCGGGTACGGTCGTGGCCCTTT (ssDNA, 5' C6 thiol) [PSAG114] | 63 ± 5.4 Hz (frequency drop)
3 | TTTTTCTGTTGCCCGGAACGTCGTGGCCCTTT (ssDNA, 5' C6 thiol) [PSAG11] | 19.2 ± 1.7 Hz (frequency drop)
4 | TTTTTCCGCACAACTTGCCATCAAATATCTTT (ssDNA, 5' C6 thiol) [PSAG118] | 24.9 ± 3.9 Hz (frequency drop)
5 | TTTTTACTTAATGCGGAACGTCGTGGCCCTTT (ssDNA, 5' C6 thiol) [PSAG112] | 71.7 ± 1.3 Hz (frequency drop)
6 | TTTTTCTGGAATGATTTCCCGGTTGTCTCTTT (ssDNA, 5' C6 thiol) [PSAG15] | 108 ± 14 Hz (frequency drop)
7 | TTTTTACGCACCGGGTACGTTTTTTGGCCTTT (ssDNA, 5' C6 thiol) [PSAG119] | 91.3 ± 9.7 Hz (frequency drop)
8 | TTTTTAATATCCGGGTACGTTTTTTGGCCTTT (ssDNA, 5' C6 thiol) [PSAG117] | 82.9 ± 5.8 Hz (frequency drop)
9 | TTTTTCTGGTCCGGGTACGTTTTTTGGCCTTT (ssDNA, 5' C6 thiol) [PSAG17] | 37.3 ± 1.9 Hz (frequency drop)

Molecular target: T1, prostate specific antigen (PSA)
Assay: SPR; ka 3.37e3 M-1s-1, kd 12.34e-3 s-1; PBS (10 mM Na2HPO4, 137 mM NaCl, 2 mM KH2PO4, 2.7 mM KCl), pH 7.4; SPR at 25 C, 50 ul/min; PSA 2 ng/ml; DNA/PEG thiol SAM on gold; QCM temperature not stated
Conditions: protein: commercial; hairpin (predicted)

Row | Binder | Ka
10 | TTTTTAATATCCGGGTTCCCGGTTGTCTCTTT (ssDNA, 5' C6 thiol) [PSAG24] | 0.27 ± 0.04 10^6 M-1

Molecular target: T1, prostate specific antigen (PSA)
Assay: QCM; 2 ng/ml PSA injected; PBS (10 mM Na2HPO4, 137 mM NaCl, 2 mM KH2PO4, 2.7 mM KCl), pH 7.4; SPR at 25 C, 50 ul/min; PSA 2 ng/ml; DNA/PEG thiol SAM on gold; QCM temperature not stated
Conditions: protein: commercial; hairpin (predicted)
Remark: another data set of the same source

Row | Binder | binding signal
11 | TTTTTAATATCCGGGGAACGTCGTGGCCCTTT (ssDNA, 5' C6 thiol) [PSAG28] | 166 ± 6.7 Hz (frequency drop)
12 | TTTTTAATATCCGGGTTCCCGGTTGTCTCTTT (ssDNA, 5' C6 thiol) [PSAG24] | 131 ± 4.9 Hz (frequency drop)
13 | TTTTTACGCACCGGGTACGTTTTTTGGCCTTT (ssDNA, 5' C6 thiol) [PSAG212] | 59.5 ± 5.8 Hz (frequency drop)

Reference: article PMC5387809, “The Combination of Computational and Biosensing Technologies for Selecting Aptamer against Prostate Specific Antigen”
